First the molecules themselves.
B1: Phosphate system positive regulatory protein PHO4 (Saccharomyces cerevisiae), P07270 (parent)
chain: MGRTTSEGIHGFVDDLEPKSSILDKVGDFITVNTKRHDGREDFNEQNDELNSQENHNSSENGNENENEQDSLALDDLDRAFELVEGMDMDWMMPSHAHHSPATTATIKPRLLYSPLIHTQSAVPVTISPNLVATATSTTSANKVTKNKSNSSPYLNKRRGKPGPDSATSLFELPDSVIPTPKPKPKPKQYPKVILPSNSTRRVSPVTAKTSSSAEGVVVASESPVIAPHGSSHSRSLSKRRSSGALVDDDKRESHKHAEQARRNRLAVALHELASLIPAEWKQQNVSAAPSKATTVEAACRYIRHLQQNVST
partner: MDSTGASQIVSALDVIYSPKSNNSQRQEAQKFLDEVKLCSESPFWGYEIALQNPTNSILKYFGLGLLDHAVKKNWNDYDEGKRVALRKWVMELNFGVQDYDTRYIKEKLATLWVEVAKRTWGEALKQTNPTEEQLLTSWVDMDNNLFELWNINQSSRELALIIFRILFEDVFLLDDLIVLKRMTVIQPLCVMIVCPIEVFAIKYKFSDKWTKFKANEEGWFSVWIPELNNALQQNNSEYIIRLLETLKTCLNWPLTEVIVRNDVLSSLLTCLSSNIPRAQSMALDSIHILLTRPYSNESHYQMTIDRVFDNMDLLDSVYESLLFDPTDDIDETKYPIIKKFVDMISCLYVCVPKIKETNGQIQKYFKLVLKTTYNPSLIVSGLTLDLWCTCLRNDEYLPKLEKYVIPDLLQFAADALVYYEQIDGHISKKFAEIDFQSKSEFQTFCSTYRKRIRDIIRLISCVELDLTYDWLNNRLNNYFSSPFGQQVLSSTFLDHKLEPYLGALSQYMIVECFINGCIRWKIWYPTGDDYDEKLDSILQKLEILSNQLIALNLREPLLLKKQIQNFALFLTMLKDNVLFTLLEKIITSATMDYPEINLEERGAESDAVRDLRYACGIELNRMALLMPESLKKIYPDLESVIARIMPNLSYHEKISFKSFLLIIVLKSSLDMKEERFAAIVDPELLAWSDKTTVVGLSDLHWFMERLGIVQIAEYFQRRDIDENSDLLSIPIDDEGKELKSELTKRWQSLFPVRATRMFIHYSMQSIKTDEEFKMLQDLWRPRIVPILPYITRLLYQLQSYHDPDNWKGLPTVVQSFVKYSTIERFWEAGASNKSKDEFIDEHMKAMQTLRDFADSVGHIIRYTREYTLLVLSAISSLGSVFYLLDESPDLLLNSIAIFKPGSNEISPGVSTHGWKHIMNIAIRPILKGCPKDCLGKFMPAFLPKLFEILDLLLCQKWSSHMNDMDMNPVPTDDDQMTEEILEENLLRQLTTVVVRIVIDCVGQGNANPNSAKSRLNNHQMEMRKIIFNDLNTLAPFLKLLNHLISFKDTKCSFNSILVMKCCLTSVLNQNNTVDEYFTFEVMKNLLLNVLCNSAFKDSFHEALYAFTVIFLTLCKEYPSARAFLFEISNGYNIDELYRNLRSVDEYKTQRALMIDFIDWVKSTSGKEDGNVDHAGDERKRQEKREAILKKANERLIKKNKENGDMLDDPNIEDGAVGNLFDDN

Variants of B1 are the subject of this test. The settings on record: with msn5_yeast MSN5, P52918.
MGRTTSEGIHGFVDDLEPKSSILDKVGDFITVNTKRHDGREDFNEQNDELNSQENHNSSENGNENENEQDSLALDDLDRAFELVEGMDMDWMMPSHAHHAPATTATIKPRLLYAPLIHTQSAVPVTIAPNLVATATSTTSANKVTKNKSNSAPYLNKRRGKPGPDSATSLFELPDSVIPTPKPKPKPKQYPKVILPSNSTRRVSPVTAKTSSSAEGVVVASEAPVIAPHGSSHSRSLSKRRSSGALVDDDKRESHKHAEQARRNRLAVALHELASLIPAEWKQQNVSAAPSKATTVEAACRYIRHLQQNVST [S100A;S114A;S128A;S152A;S223A]: the “effect of a mutation on the interaction” value is “disrupting interaction”.

The record behind these values is IntAct's records for PubMed 9853758.
